Sequences and labels used below:
B1: Golgi SNAP receptor complex member 2 (Homo sapiens), O14653 (parent)
chain: MDPLFQQTHKQVHEIQSCMGRLETADKQSVHIVENEIQASIDQIFSRLERLEILSSKEPPNKRQNARLRVDQLKYDVQHLQTALRNFQHRRHAREQQERQREELLSRTFTTNDSDTTIPMDESLQFNSSLQKVHNGMDDLILDGHNILDGLRTQRLTLKGTQKKILDIANMLGLSNTVMRLIEKRAFQDKYFMIGGMLLTCVVMFLVVQYLT
partner: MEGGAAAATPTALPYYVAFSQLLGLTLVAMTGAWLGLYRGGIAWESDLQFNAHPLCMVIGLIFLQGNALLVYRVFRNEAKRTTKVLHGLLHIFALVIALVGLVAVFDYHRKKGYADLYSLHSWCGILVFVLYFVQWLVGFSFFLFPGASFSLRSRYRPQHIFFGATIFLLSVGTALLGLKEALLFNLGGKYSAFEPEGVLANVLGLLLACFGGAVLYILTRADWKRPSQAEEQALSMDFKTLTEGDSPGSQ
B2: Succinate--CoA ligase [ADP-forming] subunit beta, mitochondrial (Homo sapiens), Q9P2R7 (parent)
chain: MAASMFYGRLVAVATLRNHRPRTAQRAAAQVLGSSGLFNNHGLQVQQQQQRNLSLHEYMSMELLQEAGVSVPKGYVAKSPDEAYAIAKKLGSKDVVIKAQVLAGGRGKGTFESGLKGGVKIVFSPEEAKAVSSQMIGKKLFTKQTGEKGRICNQVLVCERKYPRREYYFAITMERSFQGPVLIGSSHGGVNIEDVAAESPEAIIKEPIDIEEGIKKEQALQLAQKMGFPPNIVESAAENMVKLYSLFLKYDATMIEINPMVEDSDGAVLCMDAKINFDSNSAYRQKKIFDLQDWTQEDERDKDAAKANLNYIGLDGNIGCLVNGAGLAMATMDIIKLHGGTPANFLDVGGGATVHQVTEAFKLITSDKKVLAILVNIFGGIMRCDVIAQGIVMAVKDLEIKIPVVVRLQGTRVDDAKALIADSGLKILACDDLDEAARMVVKLSEIVTLAKQAHVDVKFQLPI
partner: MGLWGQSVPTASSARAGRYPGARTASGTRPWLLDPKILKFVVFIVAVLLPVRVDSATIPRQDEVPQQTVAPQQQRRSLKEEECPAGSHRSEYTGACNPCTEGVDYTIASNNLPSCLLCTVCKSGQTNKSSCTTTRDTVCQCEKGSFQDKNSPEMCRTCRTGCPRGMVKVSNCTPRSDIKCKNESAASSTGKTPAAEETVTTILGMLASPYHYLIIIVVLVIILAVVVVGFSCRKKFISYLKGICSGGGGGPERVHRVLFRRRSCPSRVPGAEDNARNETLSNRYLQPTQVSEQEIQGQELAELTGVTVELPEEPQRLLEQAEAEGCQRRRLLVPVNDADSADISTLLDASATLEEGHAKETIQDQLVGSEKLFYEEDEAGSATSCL
B3: Very-long-chain enoyl-CoA reductase (Homo sapiens), Q9NZ01 (parent)
chain: MKHYEVEILDAKTREKLCFLDKVEPHATIAEIKNLFTKTHPQWYPARQSLRLDPKGKSLKDEDVLQKLPVGTTATLYFRDLGAQISWVTVFLTEYAGPLFIYLLFYFRVPFIYGHKYDFTSSRHTVVHLACICHSFHYIKRLLETLFVHRFSHGTMPLRNIFKNCTYYWGFAAWMAYYINHPLYTPPTYGAQQVKLALAIFVICQLGNFSIHMALRDLRPAGSKTRKIPYPTKNPFTWLFLLVSCPNYTYEVGSWIGFAIMTQCLPVALFSLVGFTQMTIWAKGKHRSYLKEFRDYPPLRMPIIPFLL
partner: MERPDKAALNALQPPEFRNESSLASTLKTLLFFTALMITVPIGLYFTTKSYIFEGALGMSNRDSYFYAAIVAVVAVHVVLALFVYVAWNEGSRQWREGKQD
B4: Very-long-chain enoyl-CoA reductase (Homo sapiens), Q9NZ01 (parent)
chain: B3 chain
partner: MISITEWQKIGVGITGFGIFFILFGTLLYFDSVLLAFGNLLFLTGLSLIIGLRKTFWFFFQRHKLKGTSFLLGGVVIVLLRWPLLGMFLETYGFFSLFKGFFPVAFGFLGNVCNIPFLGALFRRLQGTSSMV
B5: Golgi SNAP receptor complex member 2 (Homo sapiens), O14653 (parent)
chain: B1 chain
partner: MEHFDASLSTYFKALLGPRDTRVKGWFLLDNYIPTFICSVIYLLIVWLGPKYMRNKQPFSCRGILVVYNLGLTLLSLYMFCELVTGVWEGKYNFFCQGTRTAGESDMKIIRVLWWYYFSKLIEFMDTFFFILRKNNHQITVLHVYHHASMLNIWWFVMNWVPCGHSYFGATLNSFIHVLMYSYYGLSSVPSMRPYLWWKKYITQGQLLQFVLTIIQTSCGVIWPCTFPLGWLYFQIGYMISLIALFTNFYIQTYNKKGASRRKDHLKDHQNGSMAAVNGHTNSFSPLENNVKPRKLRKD

The variants in one experiment derive from B1. Particulars: with cy561_human CYB561, P49447.
Regarding MDPLFQQTHKQVHEIQSCMGRLETADKQSVHIVENEIQASIDQIFSRLERLEILSSKEPPNKRQNARLRVDQLKYDVQHLQTALRNFQHRRHAREQQERQREELLSRTFTTNDSDTTIPMDESLQFNSSLQKVHNGMDDLILDWHNILDGLRTQRLTLKGTQKKILDIANMLGLSNTVMRLIEKRAFQDKYFMIGGMLLTCVVMFLVVQYLT [G144W], the “effect of a mutation on the interaction” value was “with no effect”.

Another experiment covers variants of B2. The settings on record: with tr10d_human TNFRSF10D.
As for MAASMFYGRLVAVATLRNHRPRTAQRAAAQVLGSSGLFNNHGLQVQQQQQRNLSLHEYMSMELLQEAGVSVPKGYVAKSPDEAYAIAKKLGSKDVVIKAQVLAGGRGKGTFESGLKGGVKIVFSPEEAKAVSSQMIGKKLFTKQTGEKGRICNQVLVCERKYPRREYYFAITMERSFQGPVLIGSSHGGVNIEDVAAESPEAIIKEPIDIEEGIKKEQALQLAQKMGFPPNIVESAAENMVKLYSLFLKYNATMIEINPMVEDSDGAVLCMDAKINFDSNSAYRQKKIFDLQDWTQEDERDKDAAKANLNYIGLDGNIGCLVNGAGLAMATMDIIKLHGGTPANFLDVGGGATVHQVTEAFKLITSDKKVLAILVNIFGGIMRCDVIAQGIVMAVKDLEIKIPVVVRLQGTRVDDAKALIADSGLKILACDDLDEAARMVVKLSEIVTLAKQAHVDVKFQLPI [D251N], the “effect of a mutation on the interaction” value is given as “disrupting interaction strength”.
With MAASMFYGRLVAVATLRNHRPRTAQRAAAQVLGSSGLFNNHGLQVQQQQQRNLSLHEYMSMELLQEAGVSVPKGYVAKSPDEAYAIAKKLGSKDVVIKAQVLAGGRGKGTFESGLKGRVKIVFSPEEAKAVSSQMIGKKLFTKQTGEKGRICNQVLVCERKYPRREYYFAITMERSFQGPVLIGSSHGGVNIEDVAAESPEAIIKEPIDIEEGIKKEQALQLAQKMGFPPNIVESAAENMVKLYSLFLKYDATMIEINPMVEDSDGAVLCMDAKINFDSNSAYRQKKIFDLQDWTQEDERDKDAAKANLNYIGLDGNIGCLVNGAGLAMATMDIIKLHGGTPANFLDVGGGATVHQVTEAFKLITSDKKVLAILVNIFGGIMRCDVIAQGIVMAVKDLEIKIPVVVRLQGTRVDDAKALIADSGLKILACDDLDEAARMVVKLSEIVTLAKQAHVDVKFQLPI [G118R], the “effect of a mutation on the interaction” value is “disrupting interaction strength”.

The next experiment covers variants of B3. Particulars: with vma21_human VMA21, Q3ZAQ7.
For MKHYEVEILDAKTREKLCFLDKVEPHATIAEIKNLFTKTHPQWYPARQSLRLDPKGKSLKDEDVLQKLPVGTTATLYFRDLGAQISWVTVFLTEYAGPLFIYLLFYFRVPFIYGHKYDFTSSRHTVVHLACICHSFHYIKRLLETLFVHRFSHGTMPLRNIFKNCTYYWGFAAWMAYYINHLLYTPPTYGAQQVKLALAIFVICQLGNFSIHMALRDLRPAGSKTRKIPYPTKNPFTWLFLLVSCPNYTYEVGSWIGFAIMTQCLPVALFSLVGFTQMTIWAKGKHRSYLKEFRDYPPLRMPIIPFLL [P182L], the “effect of a mutation on the interaction” value was “disrupting interaction strength”.

The next experiment covers variants of B4. Particulars: with got1a_human GOLT1A.
On to MKHYEVEILDAKTREKLCFLDKVEPHATIAEIKNLFTKTHPQWYPARQSLRLDPKGKSLKDEDVLQKLPVGTTATLYFRDLGAQISWVTVFLTEYAGPLFIYLLFYFRVPFIYGHKYDFTSSRHTVVHLACICHSFHYIKRLLETLFVHRFSHGTMPLRNIFKNCTYYWGFAAWMAYYINHLLYTPPTYGAQQVKLALAIFVICQLGNFSIHMALRDLRPAGSKTRKIPYPTKNPFTWLFLLVSCPNYTYEVGSWIGFAIMTQCLPVALFSLVGFTQMTIWAKGKHRSYLKEFRDYPPLRMPIIPFLL [P182L], for which the “effect of a mutation on the interaction” value is reported as “with no effect”.

The variants in a further experiment derive from B5. The settings on record: with elov5_human ELOVL5, Q9NYP7.
On to MDPLFQQTHKQVHEIQSCMGRLETADKQSVHIVENEIQASIDQIFSRLERLEILSSKEPPNKRQNARLRVDQLKYDVQHLQTALRNFQHRRHAREQQERQREELLSRTFTTNDSDTTIPMDESLQFNSSLQKVHNGMDDLILDWHNILDGLRTQRLTLKGTQKKILDIANMLGLSNTVMRLIEKRAFQDKYFMIGGMLLTCVVMFLVVQYLT [G144W], for which the “effect of a mutation on the interaction” value is “with no effect”.

The values are drawn from IntAct's records for PubMed 32296183.
